Biological target: the molecule itself
Experiment: cross-linking

B1: Hin–H107Y/S94C (enzyme)
chain: MATIGYIRVSTIDQNIDLQRNALTSANCDRIFEDRISGKIANRPGLKRALKYVNKGDTLVVWKLDRLGRSVKNLVALISELHERGAHFHSLTDCIDTSSAMGRFFFYVMSALAEMERELIVERTLAGLAAARAQGRLGGRPRAINKHEQEQISRLLEKGHPRQQLAIIFGIGVSTLYRYFPASRIKKRMN
Q: Does B1 bind?
A: Result: binds

Reference: PMC2724282 (Nucleic Acids Research, 2009)
